Source: patent publication WO2018092907A1 (dated 2018)

T1: human TNFR2 expressed on the cell membrane (membrane-type TNFR2) (human, UniProt P20333 23-461)
T1 construct: also called TNFRSF1B; cell membrane type TNFR2
T1 sequence: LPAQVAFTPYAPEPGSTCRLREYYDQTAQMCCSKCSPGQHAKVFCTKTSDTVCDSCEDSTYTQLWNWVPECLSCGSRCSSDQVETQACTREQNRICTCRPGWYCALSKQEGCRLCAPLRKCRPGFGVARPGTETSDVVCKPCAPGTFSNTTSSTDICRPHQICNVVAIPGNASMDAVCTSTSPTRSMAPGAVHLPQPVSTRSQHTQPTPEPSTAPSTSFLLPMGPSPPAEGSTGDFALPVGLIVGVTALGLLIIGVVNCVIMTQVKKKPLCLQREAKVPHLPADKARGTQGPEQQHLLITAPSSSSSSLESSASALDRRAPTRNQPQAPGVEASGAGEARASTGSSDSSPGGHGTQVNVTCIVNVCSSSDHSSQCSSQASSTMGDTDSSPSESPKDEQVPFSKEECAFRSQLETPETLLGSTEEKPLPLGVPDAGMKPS

T2: TNFR1 on transiently transfected cells (UniProt P19438 30-455, limits assumed)
T2 construct: whole, on cells
T2 sequence (looked up): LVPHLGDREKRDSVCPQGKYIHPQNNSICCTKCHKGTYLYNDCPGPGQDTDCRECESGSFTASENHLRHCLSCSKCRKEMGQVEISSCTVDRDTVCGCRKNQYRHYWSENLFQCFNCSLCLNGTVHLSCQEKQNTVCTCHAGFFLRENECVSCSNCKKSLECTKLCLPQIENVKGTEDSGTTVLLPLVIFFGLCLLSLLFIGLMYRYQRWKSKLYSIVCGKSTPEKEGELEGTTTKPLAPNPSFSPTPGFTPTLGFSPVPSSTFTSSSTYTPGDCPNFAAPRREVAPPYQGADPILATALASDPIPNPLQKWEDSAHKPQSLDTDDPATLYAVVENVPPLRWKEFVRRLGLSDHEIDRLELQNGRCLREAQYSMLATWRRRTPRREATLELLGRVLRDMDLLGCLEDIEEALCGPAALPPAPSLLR

B1: humanized TR92 antibody (TR92HUVH1 + TR92HUVL1) (antibody, V domains shown)
VH: QVQLVQSGAEVKKPGASVKVSCKASGYTFTESIIHWVRQAPGQGLEWMGWFYPGSDNINYNEKFKDRVTMTRDTSISTAYMELSRLRSDDTAVYYCARHEGPYVYFDYWGQGTTVTVSS
VL: DIVMTQSPDSLAVSLGERATINCKASQDVSTAVAWYQQKPGQPPKLLIYWTSTRHTGVPDRFSGSGSGTDFTLTISSLQAEDVAVYYCQHHYSTPYTFGQGTKLEIK
notes: also called one of the four humanized TR92 antibodies
B2: humanized TR92 antibody (TR92HUVH2 + TR92HUVL1) (antibody, V domains shown)
VH: QVQLVQSGAEVKKPGASVKVSCKASGYTFTESIIHWVRQATGQGLEWMGWFYPGSDNINYNEKFKDRVTMTRNTSISTAYMELSSLRSEDTAVYYCARHEGPYVYFDYWGQGTTVTVSS
VL: DIVMTQSPDSLAVSLGERATINCKASQDVSTAVAWYQQKPGQPPKLLIYWTSTRHTGVPDRFSGSGSGTDFTLTISSLQAEDVAVYYCQHHYSTPYTFGQGTKLEIK
notes: as for B1
B3: humanized TR92 antibody (TR92HUVH1 + TR92HUVL2) (antibody, V domains shown)
VH: QVQLVQSGAEVKKPGASVKVSCKASGYTFTESIIHWVRQAPGQGLEWMGWFYPGSDNINYNEKFKDRVTMTRDTSISTAYMELSRLRSDDTAVYYCARHEGPYVYFDYWGQGTTVTVSS
VL: DIQMTQSPSSLSASVGDRVTITCKASQDVSTAVAWYQQKPGKAPKLLIYWTSTRHTGVPSRFSGSGSGTDFTLTISSLQPEDFATYYCQHHYSTPYTFGQGTKLEIK
notes: as for B1
B4: humanized TR92 antibody (TR92HUVH2 + TR92HUVL2) (antibody, V domains shown)
VH: QVQLVQSGAEVKKPGASVKVSCKASGYTFTESIIHWVRQATGQGLEWMGWFYPGSDNINYNEKFKDRVTMTRNTSISTAYMELSSLRSEDTAVYYCARHEGPYVYFDYWGQGTTVTVSS
VL: DIQMTQSPSSLSASVGDRVTITCKASQDVSTAVAWYQQKPGKAPKLLIYWTSTRHTGVPSRFSGSGSGTDFTLTISSLQPEDFATYYCQHHYSTPYTFGQGTKLEIK
notes: as for B1
B5: humanized TR109 antibody (TR109HUVH1 + TR109HUVL1) (antibody, V domains shown)
VH: QVQLQESGPGLVKPSGTLSLTCAVSGGSISVYGVNWVRQPPGKGLEWIGMIWGDGSTAYNSALKSRVTISVDKSKNQFSLKLSSVTAADTAVYYCARDGRRYALDYWGQGTLVTVSS
VL: DIVMTQSPDSLAVSLGERATINCRASESVDSYGDSFLHWYQQKPGQPPKLLIYRASNLDSGVPDRFSGSGSGTDFTLTISSLQAEDVAVYYCQQSNEDPYTFGQGTKLEIK
notes: also called one of the four humanized TR109 antibodies
B6: humanized TR109 antibody (TR109HUVH2 + TR109HUVL1) (antibody, V domains shown)
VH: QVQLQESGPGLVKPSETLSLTCTVSGYSISVYGVNWIRQPPGKGLEWIGMIWGDGSTAYNSALKSRVTISVDTSKNQFSLKLSSVTAADTAVYYCARDGRRYALDYWGQGTLVTVSS
VL: DIVMTQSPDSLAVSLGERATINCRASESVDSYGDSFLHWYQQKPGQPPKLLIYRASNLDSGVPDRFSGSGSGTDFTLTISSLQAEDVAVYYCQQSNEDPYTFGQGTKLEIK
notes: as for B5
B7: humanized TR109 antibody (TR109HUVH1 + TR109HUVL2) (antibody, V domains shown)
VH: QVQLQESGPGLVKPSGTLSLTCAVSGGSISVYGVNWVRQPPGKGLEWIGMIWGDGSTAYNSALKSRVTISVDKSKNQFSLKLSSVTAADTAVYYCARDGRRYALDYWGQGTLVTVSS
VL: EIVLTQSPATLSLSPGERATLSCRASESVDSYGDSFLHWYQQKPGQAPRLLIYRASNLDSGIPARFSGSGSGTDFTLTISSLEPEDFAVYYCQQSNEDPYTFGQGTKLEIK
notes: as for B5
B8: humanized TR109 antibody (TR109HUVH2 + TR109HUVL2) (antibody, V domains shown)
VH: QVQLQESGPGLVKPSETLSLTCTVSGYSISVYGVNWIRQPPGKGLEWIGMIWGDGSTAYNSALKSRVTISVDTSKNQFSLKLSSVTAADTAVYYCARDGRRYALDYWGQGTLVTVSS
VL: EIVLTQSPATLSLSPGERATLSCRASESVDSYGDSFLHWYQQKPGQAPRLLIYRASNLDSGIPARFSGSGSGTDFTLTISSLEPEDFAVYYCQQSNEDPYTFGQGTKLEIK
notes: as for B5
B9: TR109 (anti-TNFR2 antagonist antibody, mouse monoclonal) (antibody, V domains shown)
VH: QVQLKESGPGLVAPSQSLSITCTVSGFSLTVYGVNWVRQPPGKGLEWLGMIWGDGSTAYNSALKSRLTITKDNSKTQVFLKMNSLQTDDTARYYCARDGRRYALDYWGQGTSVTVSS
VL: DIVLTQSPTSLAVSLGQRATISCRASESVDSYGDSFLHWYQQKPGQPPILLIYRASNLDSGIPARFSGSGSRTDFTLTINPVEADDVATYYCQQSNEDPYTFGGGTKLEINR
notes: also called Ep9: TR109; Ep7

Target: T1, human TNFR2 expressed on the cell …
Experiment: flow cytometry on cells with transient expression of TNFR2 against untreated cells

Row | Binder | binding result
1 | B1 | binds
2 | B2 | binds
3 | B3 | binds
4 | B4 | binds
5 | B5 | binds
6 | B6 | binds
7 | B7 | binds
8 | B8 | binds

Target: T2, TNFR1 on transiently transfected cells
Experiment: flow cytometry on transiently transfected cells

Row | Binder | binding result
9 | B9 | no binding
